Test results taken from patent publication US20100266502A1 (Chugai, published 2010).

B1: HC-15 (antibody, V domains shown)
VH: EVQLQQSGPELVKPGASVKISCKASGYSFTGYYMHWVKQSPEKRLEWIGEINPRTGITTYNQKFKAKATLTVDKSSSTAYMQLKSLTSEDSAVYYCARVGSSGPFTYWGQGTLVTVSA
VL: DIVMTQSPSSLSVSAGDKVTMSCKSSQSLLNSRNQKNYLAWYQQKPWQPPKLLIYGASTRESGVPDRFTGSGSGTDFTLTISSVQAEDLAVYYCQNDYSYPFTFGTGTKLEIK
B2: HE-39 (antibody, V domains shown)
VH: EVQLQQSGPELMKPGASVKMSCKASGYIFTDYYMNWVKQSHGKSLEWIGRVNPNNGGTSYSQKFKDKATLTVDKSLNTAYMQVNSLTSEDSAVYYCARIYYGGSDWGQGTTLTVSS
VL: EIVMTQTPLSLSVTIGQPASISCKSSQSLLYTTGKTYLNWLQQRPGQAPKHLMYQVSKLVPGIPDRFSGSGSETDFTLKISRVEAEDLGVYYCLQGTYYPHTFGSGTKLEIK

Tests used:
[1] = molecular target: T1, active-form HB-EGF protein (R&D Systems, Inc., 259-HE) (human, UniProt Q99075 63-148); experiment: ELISA, purified antibody on plate coated with 1 µg/mL HB-EGF; printed as ED50 (antibody concentration that gave 50% binding)
T1 construct: also called sHB-EGF; secreted-form HB-EGF

[2] = molecular target: T1, active-form HB-EGF protein (R&D …); experiment: competition ELISA: inhibition of HB-EGF (50 ng/mL) binding to immobilised EGFR-Fc
[3] = molecular target: T1, active-form HB-EGF protein (R&D …); experiment: cell-based or functional assay
[4] = molecular target: T1, active-form HB-EGF protein (R&D …); experiment: ELISA, purified antibody on plate coated with 1 µg/mL HB-EGF; given as ED50
[5] = molecular target: T1, active-form HB-EGF protein (R&D …); experiment: cell-based or functional assay; remark: listed apart in the source

T1 sequence (Q99075 63-148 limits assumed): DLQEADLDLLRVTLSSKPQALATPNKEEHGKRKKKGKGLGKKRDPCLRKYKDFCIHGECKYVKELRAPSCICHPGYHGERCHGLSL

| Binder | EC50 [1] | EC50 [2] | Inhibition of HB-EGF-dependent growth (EC50, nmol/L) [3] | EC50 [4] | EC50 (nM), growth-inhibiting effect on EGFR_Ba/F3 cells [5] |
| --- | --- | --- | --- | --- | --- |
| B1 | 200 pM | 520 pM | 2.06 nmol/L | 650 pM | 3.8 nM |
| B2 |  | 860 pM | 0.83 nmol/L | 16 pM |  |
